Test results published in patent publication US20210285965A1 (SEATTLE CHILDREN S HOSPITAL D B A SEATTLE CHILDREN S …, published 2021).

Key:
Experiment in all cases: immunoaffinity peptide capture on mAb-Protein G magnetic beads, read by SRM-MS (immuno-SRM); ELISA screening
[1] = biological target: T1, CYBB 509-521 signature peptide (TLYGRPNWDNEFK)
T1 construct: Endogenous tryptic peptide of CYBB from digested dried blood spots of patients and normal controls
T1 peptide: TLYGRPNWDNEFK

[2] = biological target: T2, ADA 93-101 signature peptide (EGVVYVEVR) (human)
T2 peptide: EGVVYVEVR

[3] = biological target: T3, CD42 154-165 signature peptide (TLPPGLLTPTPK)
T3 construct: Endogenous tryptic peptide of CD42 (glycoprotein Ib) from digested dried blood spots of patients and normal controls
T3 peptide: TLPPGLLTPTPK

[4] = biological target: T4, SH2D1A 19-32 signature peptide (LLLATGLDGSYLLR)
T4 construct: Tryptic peptide of SH2D1A (SAP); also called SAP
T4 peptide: LLLATGLDGSYLLR

[5] = biological target: T5, CD56 122-130 signature peptide (NAPTPQEFR)
T5 construct: Endogenous tryptic peptide of CD56 (NCAM) from digested dried blood spots of patients and normal controls
T5 peptide: NAPTPQEFR

[6] = biological target: T6, DOCK8 1272-1283 signature peptide (TSGIVLSSLPYK)
T6 construct: Endogenous tryptic peptide of DOCK8 from digested dried blood spots of patients and normal controls
T6 peptide: TSGIVLSSLPYK

[7] = biological target: T7, ATM 1561-1572 signature peptide (LLDPFPDHVVFK)
T7 construct: Endogenous tryptic peptide of ATM from digested dried blood spots of normal controls
T7 peptide: LLDPFPDHVVFK

[8] = biological target: T8, CD42 128-137 signature peptide (LTSLPLGALR)
T8 construct: Endogenous tryptic peptide of CD42 (glycoprotein Ib) from digested dried blood spots of patients and normal controls
T8 peptide: LTSLPLGALR

B1: anti-CYBB 509 monoclonal antibody (antibody, V domains shown)
VH: QSLEESGGGLVKPGASLTLTCTASGFSFSRSYWICWVRQAPGKGLEWLGCIYAGSSGSTYYASWAKGRFTISKTSSTTVTLQMTSLTAADTATYFCARGNNNIIILDLWGPGILVTVSS
VL: AVLTQTPSPVSAAVGGTVTISCQASQSVYNNNALSWYQQKPGQPPKLLIYDASDLAPGVPSRFSGSGSGTQFTLTISDVQCDDAATYYCLGGYSVSSDNAFGGGTEVVVNG
notes: Full heavy and light chains without leader; also called clone EB0611C-1E12-H2 / EB0611C-1E12-K2
[1]
  binding result: binds

B2: anti-ADA 93 monoclonal antibody (antibody, V domains shown)
VH: QEQLEESGGDLVKPGSSLTLTCTASGFSFTNSDWECWVRQAPGKGLEWIACIYGDSRSGYYASWAKGRFTISKTSSTTVTLQMTTLTAADTATYFCARNLGSLWGPGTLVTVSS
VL: QVLTQTPSSVSAAVGGTVTINCQSSQNVVFNNRLAWFQQKPGQPPKLLIYQASTLASGVPPRFKGSGSGTQFTLTISDLECDDAATYYCLGSYDCSSTDCNTFGGGTEVVVKG
notes: Full heavy and light chains without leader; also called clone EB0608A-3C12-H2 / EB0608A-3C12-K2
[2]
  binding result: binds

B3: anti-CD42 154 monoclonal antibody (antibody, V domains shown)
VH: EVQLQQSGPELVKPGASVKMSCKASGYTFTGYNMHWVKQSHGKSLEWIGDINPKTGENSYNQKFKGKATLTISKSSSTAYMELRSLTSEDSAVYYCVRWGVYYLDHWGQGTTLTVSS
VL: DIVMTQAAFSNPVTLGTSASISCRSTKSLLYSDGITYLYWYLQRPGQSPQLLIYRMSDLASGVPDRFSGSGSGTDFTLRISRVEAEDVGVYYCAQMVEFPPTFGGGTKLEIK
notes: Hybridoma antibody; also called Hybridoma SJSH4-1H11c
[3]
  binding result: binds

B4: anti-SH2D1A (SAP) 19 monoclonal antibody (antibody, V domains shown)
VH: QSLEESGGRLVTPGGTLTLTCTVSGFSLSSYDMSWVRQAPGKGLEWIGFGNTGGSTYYASWAKGRFTISRTSTTVDLRMTSLTAADTATYFCTRGAPGWITTNMWGPGTLVTVSL
VL: QVLTQTPSPVSAAVGGTVTISCQSSQSVYRNKCLAWYQQKPGQPPKLLIYKASTLASGVPSRFSGSGSGTQFTFTISDLECDDSATYYCVGYYNTNTNTTTFGGGTEVVVKG
notes: Full heavy and light chains without leader; also called Anti-SH2D1A 19; clone EB0612B-2F4-H1 / EB0612B-2F4-K1
[4]
  binding result: binds

B5: anti-CD56 122 monoclonal antibody (antibody, V domains shown)
VH: QSLEESGGDLVKPGASLTLTCKASGLDFSSNYYMCWVRQAPGKGLEWIACIYSSSLNTWYASWAKGRFTISKSTSLHTVTLQMTSLTAADTATYFCTRGGGVYVGADYGFYFYLWGPGTLVTVSS
VL: DIVMTQTPSSVEAPVGGTVTIKCQASQSIDSWCAWYQQKPGQPPKLLIYKASTLESGVPSRFKGSGSGTEFTLTISDLECADAATYFCQSYYPTTGSDNAFGGGTEVVVKG
notes: Full heavy and light chains without leader; also called clone EB0608C-3H4-H2 / EB0608C-3H4-K2
[5]
  binding result: binds

B6: anti-DOCK8 1272 monoclonal antibody (antibody, V domains shown)
VH: EVQLQQSGTVLARPGASVKMSCKASGYTFTSYWMHWVKQRPGQGLEWIGAIFPGNSNTRYNQKFKGKAKLTAVTSASTAYMELSSLTNEDSAVYYCADDNAFDYWGQGTTLTVSS
VL: QIVLTQSPAIMSASPGEKVTMTCSASSSVSSRYLHWYQQKSGASPKLWIYGTSNLSSGVPDRFSGSGSGTSYSLTISSVETEDAATYYCQQYHSDPFTFGTGTKLEIK
notes: Hybridoma antibody; also called Hybridoma SJSH5-1C2-2E
[6]
  binding result: binds

B7: anti-ATM 1561 monoclonal antibody (antibody, V domains shown)
VH: QEQLVESGGGLVQPGGSLTLTCKASGFDFSSGGMCWVRQAPGKGLEWIGCIVNGDGSTYFATWAKGRFTITRTSSTTVTLQMTSLTAADTATYFCWRYWALWGPGTLVTVSS
VL: IVMTQTPSSKSVPVGGTVTINCQASESLYNNNRLAWFQQKPGQPPKLLIYSASTLASGVPDRFSGSGSGTQFTLTISDVVCDDAATYYCVGGRSRVTDGIAFGGGTEAVVKG
notes: Full heavy and light chains without leader; also called clone EB0608D-4A10-H4 / EB0608D-4A10-K1
[7]
  binding result: binds

B8: anti-CD42 128 monoclonal antibody (antibody, V domains shown)
VH: QAYLQQSGAVLVRPGASVKMSCKASGYTFSSYNIHWVKQTPRQGLEWIGGIYPGNGDTSYNKKFKDKATLTVDKSSNTAYMHLSSLTSEDSAVFFCASDGTRYWGQGTTLTVSS
VL: EVVMTQTPLTLSVTIGQAVSISCTSSQSLLASDGKTYLNWLLQRPGQSPKRLIYLVSKLDSGVPDRFTGSGSGTDFTLKISRVEADDLGVYCCWQGAHSPLTFGAGTRLELK
notes: Hybridoma antibody; also called Hybridoma SJSH4 3B8-1b
[8]
  binding result: binds
